{"source": "paper PMC7438317", "biological_target": "GST-(PreScission site)-CYK-4 aa 146–190, phosphorylated by PLK-1 (C. elegans)", "assay": "pull-down", "data": [{"substance": "ECT-2 aa 1–320 (ECT-2 BRCT module) (domain or fragment)", "values": [{"measurement": "fold increase in binding against the unphosphorylated WT CYK-4 fragment", "value": 4, "unit": "fold"}]}]}
